The values that follow come from patent publication KR20190060702A (dated 2019).

In this assay the target is T1, 사람 ICAM4 (intercellular adhesion molecule 4) (human, UniProt Q14773 31-271).
T1 construct: whole, on cells; Always on cells that carry it naturally; no recombinant ICAM4 was used; also called CD242; 1E1 항원
T1 sequence (looked up): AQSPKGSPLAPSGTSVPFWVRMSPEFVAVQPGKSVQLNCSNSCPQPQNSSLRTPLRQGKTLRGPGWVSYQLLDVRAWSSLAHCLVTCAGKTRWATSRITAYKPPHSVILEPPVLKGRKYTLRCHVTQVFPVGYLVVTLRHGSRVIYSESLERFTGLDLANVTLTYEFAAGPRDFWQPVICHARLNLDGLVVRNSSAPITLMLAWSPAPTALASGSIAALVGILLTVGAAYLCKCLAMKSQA
The experiment in a line: binding affinity compared with the chimeric antibody (Fig. 5).

B1: 항-ICAM4 인간화항체 VH2A 및 VL2C의 조합 (antibody, V domains shown)
VH: QVQLVESGGGLVKPGGSLRLSCAVSGFSLTDYGVGWIRQAPGKGLEWLGVMWGGGRTYYNAPVKSRLTISKDNAKNSVYLQMNSLRAEDTAVYYCVKTGQDYAVDYWGQGTLVTVSS
VL: EIVLTQSPATLSLSPGERATLSCRASKSVSKYLAWYQEKPGQANRLLIYSGSTLQSGIPARFSGSGSGTDFTLTISSLEPEDFAVYYCQQHNVYPWTFGQGTKVEIK
notes: also called VH2A/VL2C
Regarding B1, the binding result is on record as “binds”.
